Experimental data as given in patent US20260022343A1 (AFFYXELL THERAPEUTICS, published 2026).
Values joined by “and” are separate entries in the source; they are usually repeats but may differ in a detail not shown here. Equal values may be shown once.

T1: human TNFR2 (human, UniProt P20333 23-257, limits assumed)
T1 sequence (looked up): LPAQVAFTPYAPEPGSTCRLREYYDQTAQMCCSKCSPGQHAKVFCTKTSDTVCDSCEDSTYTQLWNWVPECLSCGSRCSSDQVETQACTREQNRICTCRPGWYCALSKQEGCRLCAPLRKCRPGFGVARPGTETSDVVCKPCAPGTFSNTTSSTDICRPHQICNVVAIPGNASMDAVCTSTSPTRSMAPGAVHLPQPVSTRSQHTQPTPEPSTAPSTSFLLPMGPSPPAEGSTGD

T2: recombinant human CD40L (R&D Systems, 6420-CL-025/CF) (human, UniProt P29965 108-261, limits assumed)
T2 construct: Bought protein coated on the ELISA plate
T2 sequence (looked up): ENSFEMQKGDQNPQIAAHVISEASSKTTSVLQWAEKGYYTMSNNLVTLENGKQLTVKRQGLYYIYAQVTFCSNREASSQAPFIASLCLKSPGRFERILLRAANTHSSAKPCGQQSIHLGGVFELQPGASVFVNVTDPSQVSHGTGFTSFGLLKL

T3: human Mega CD40L recombinant protein (Enzo Lifesciences) (human, UniProt P29965 116-261)
T3 sequence (looked up): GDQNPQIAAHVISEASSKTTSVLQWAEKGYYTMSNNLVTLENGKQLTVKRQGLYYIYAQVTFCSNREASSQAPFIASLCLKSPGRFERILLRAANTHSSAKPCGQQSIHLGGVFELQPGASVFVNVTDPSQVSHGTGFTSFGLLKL


Columns and labels:
human TNFR2 = target: T1, human TNFR2; assay: selection of TNFR2-binding stefin A variants; method not described
[1] = target: T2, recombinant human CD40L (R&D Systems, …); assay: binding ELISA (bELISA): plate coated with recombinant human CD40L, 1/3 serial dilutions of concentrated culture fluid, TMB read-out; second-named of the two gene-introduced cell lines (promoter not stated)
Experimental: (§1) Each cell line was inoculated into a T175 flask at a cell density of 4.0×10³ cells/cm² using a culture medium. After culture at 37° C. and 5% CO₂ for 18 to 24 hours, the culture medium was thoroughly replaced with a fresh culture medium every 2 days, followed by culture. After culture for 3 days, the cells were harvested, and 7.0×10⁶ cells were inoculated into a T175 flask, followed by culture at 37° C. and 5% CO₂ for 18 to 24 hours. The culture medium was thoroughly removed, and the remaining medium was completely removed through washing with 10 mL of MEM alpha. 30 mL of an MEM alpha medium was added to a T175 flask, followed by culture for 48 hours. After 48 hours, all of the cell culture fluid was harvested and then centrifuged to remove residual cells and impurities. The cell culture fluid was transferred to a Vivaspin 20 and centrifuged, the culture fluid was concentrated, and the stefin A protein variant was quantified through sandwich ELISA (LSBio, LS-F4620). […] The unbound stefin A protein variant was removed through washing, after which the extent of binding between the stefin A protein variant and CD40L was detected based on a difference in absorbance resulting from reaction with a TMB substrate.

[2] = target: T2, recombinant human CD40L (R&D Systems, …); assay: binding ELISA (bELISA): plate coated with recombinant human CD40L, 1/3 serial dilutions of concentrated culture fluid, TMB read-out; first-named of the two gene-introduced cell lines (promoter not stated)
Experimental: as §1

[3] = target: T3, human Mega CD40L recombinant protein …; assay: cell-based or functional assay

Row | binding result (human TNFR2) | Binder | other results
1 | binds | TNFR2-binding stefin A variant CLONE 009 (designed binder, also called clone 9) MIPGGLSEAKPATPEIQEIVDKVKPQLEEKTGETYGKLEAVQYKTQVVRLFHIWRWWGTNYYIKVRAGDNKYMHLKVFKSLIHIYTDSIQEDLVLTGYQVDKNKDDELTGFAAAEQKLISEEDLAAHHHHHH | 
2 | binds | TNFR2-binding stefin A variant CLONE 026 (designed binder, also called clone 26) MIPRGLSEAKPATPEIQEIVDKVKPQLEEKTGETYGKLEAVQYKTQVLALEIPSAIIYSTNYYIKVRAGDNKYMHLKVFNGPYFWGDQEHWADRVLTGYQVDKNKDDELTGFAAAEQKLISEEDLAAHHHHHH | 
3 | binds | TNFR2-binding stefin A variant CLONE 044 (designed binder, also called clone 44) MIPGGLSEAKPATPEIQEIVDKVKPQLEEKTGETYGKLEAVQYKTQVVLFPEAVYWVGTNYYIKVRAGDNKYMHLKVFKSLIWNDNAAQHEDLVLTGYQVDKNKDDELTGFAAAEQKLISEEDLAAHHHHHH | 
4 | binds | TNFR2-binding stefin A variant CLONE 001 (designed binder, also called clone 1) MIPGGLSEAKPATPEIQEIVDKVKPQLEEKTGETYGKLEAVQYKTQVVGQDQWGNYAGTNYYIKVRAGDNKYMHLKVFKSLPDIPHNHWHEDLVLTGYQVDKNKDDELTGFAAAEQKLISEEDLAAHHHHHH | 
5 | binds | TNFR2-binding stefin A variant CLONE 007 (designed binder, also called clone 7) MIPGGLSEAKPATPEIQEIVDKVKPQLEEKTGETYGKLEAVQYKTQVVGLDIWGNNAGTNYYIKVRAGDNKYMHLKVFKSLADTARTEEAEDLVLTGYQVDKNKDDELTGFAAAEQKLISEEDLAAHHHHHH | 
6 | binds | TNFR2-binding stefin A variant CLONE 012 (designed binder, also called clone 12) MIPGGLSEAKPATPEIQEIVDKVKPQLEEKTGETYGKLEAVQYKTQVVYWGVQGALDGTNYYIKVRAGDNKYMHLKVFKSLNWNHEFDLVEDLVLTGYQVDKNKDDELTGFAAAEQKLISEEDLAAHHHHHH | 
7 | binds | TNFR2-binding stefin A variant CLONE 100 (designed binder) MIPRGLSEAKPATPEIQEIVDKVKPQLEEKTGETYGKLEAVQYKTQVLAQSWDKHYQLRESTNYYIKVRAGDNKYMHLKVFNGPEVPHHAHGVADRVLTGYQVDKNKDDELTGFAAAEQKLISEEDLAAHHHHHH | 
8 |  | anti-CD40L stefin A protein variant XT75 (SEQ ID NO: 105), secreted by gene-introduced MSC (eMSC) (designed binder, By their DNA these vectors appear to encode a further C-terminal Myc/His tag and a T2A remnant; also called AFX01-230 XT75(C); eMSC (XT75, w/EF1A)) IPGGLSEAKPATPEIQEIVDKVKPQLEEKTGETYGKLEAVQYKTQVVHYYVHYNDQGTNYYIKVRAGDNKYMHLKVFKSLWGENLFAKWEDLVLTGYQVDKNKDDELTGFAEAAAKEAAAKEAAAKEAAAKEAAAKEAAAKMIPGGLSEAKPATPEIQEIVDKVKPQLEEKTGETYGKLEAVQYKTQVVHYYVHYNDQGTNYYIKVRAGDNKYMHLKVFKSLWGENLFAKWEDLVLTGYQVDKNKDDELTGFAEAAAKEAAAKEAAAKEAAAKEAAAKEAAAKMIPGGLSEAKPATPEIQEIVDKVKPQLEEKTGETYGKLEAVQYKTQVVHYYVHYNDQGTNYYIKVRAGDNKYMHLKVFKSLWGENLFAKWEDLVLTGYQVDKNKDDELTGFAEAAAKEAAAKEAAAKEAAAKEAAAKEAAAKMIPRGLSEAKPATPEIQEIVDKVKPQLEEKTGETYGKLEAVQYKTQVLANFFQRRWPGSTNYYIKVRAGDNKYMHLKVFNGPWKFRNTDRGADRVLTGYQVDKNKDDELTGF | EC50 [1]: 0.0053 nM; EC50 [2]: 0.0039 nM; IC50 for hMega CD40L, HEK-Blue CD40L reporter cell assay (absorbance of HEK-Blue solution) [3]: 0.303 nM and 0.4 nM
